{"source": "paper PMC11342882", "molecular_target": "sACE2_(2).S01-IgG1 (human) (UniProt Q9BYF1)", "experiment": "BLI", "data": [{"substance": "Delta-RBD (from UniProt P0DTC2) (domain or fragment)", "values": [{"measurement": "Kd", "value": 1, "unit": "nM"}]}]}
